US20260008856A1 (BLUEFIN BIOMEDICINE, published 2026)

Legend:
[1] = target: T1, huIL1RAP ECD recombinant protein (human, UniProt Q9NPH3 21-367); test: Octet BLI, antibody on Protein A biosensor, recombinant huIL1RAP ECD
T1 construct: also called recombinant human IL1RAP-ECD; recombinant human IL1RAP; not shown: C-terminal histidine tag for purification
Description: Affinity: The affinity of antibodies to various recombinant IL1RAP protein was determined on an Octet Red™ instrument. After loading reagents into a 96-well plate, the Octet Red™ with Protein A-conjugated biosensors was programmed as follows: 30 seconds for baseline #1; 120 seconds to immobilize the antibody; 30 seconds for baseline #2; 300 seconds for association of antibody to recombinant IL1RAP; and 300-600 seconds for dissociation of recombinant IL1RAP from the antibody.

[2] = target: T2, human IL1RAP on IL1RAP positive human cell lines (EOL-1, Karpas 299; HEK-Blue reporter cells) (human, UniProt Q9NPH3 21-570); test: cell-based or functional assay
[3] = target: T3, mouse IL1RAP (Met1-Val570 plus Myc-DDK) on transfected 293 cells (Mus musculus, UniProt Q61730 21-570); test: flow cytometry on 293 cells expressing mouse IL1RAP (293-puro-mouseIL1RAP) vs 293T-puro [cont.]
T3 construct: whole, on cells; also called MR223729
Description: (§1) Staining for flow cytometry was performed in 1× cold PBS with 0.5% BSA. Primary antibodies (1 ug/ml) were incubated with live cells on ice for 30 minutes, after a brief wash, cells were incubated with Alexa Fluro® 488-conjugated anti-human IgG secondary antibody @1:1000 (709-546-149, Jackson ImmunoResearch). Acquisition of the data was performed on a MACSQuant® Flow Cytometers (Miltenyi Biotec) and analyzed with FlowJo software.

[4] = target: T2, human IL1RAP on IL1RAP positive human …; test: cell-based or functional assay; remark: listed apart in the source
[5] = target: T2, human IL1RAP on IL1RAP positive human …; test: cell-based or functional assay; remark: listed apart in the source
[6] = target: T4, rat IL1RAP (Met1-Val570 plus Myc-DDK) on transfected 293 cells (Rattus norvegicus, UniProt Q63621 21-570); test: flow cytometry on 293 cells expressing rat IL1RAP (293-puro-ratIL1RAP) vs 293T-puro [cont.]
T4 construct: whole, on cells; also called RR213032
Description: as §1

[7] = target: T4, rat IL1RAP (Met1-Val570 plus Myc-DDK) …; test: flow cytometry on 293 cells expressing rat IL1RAP (293-puro-ratIL1RAP) vs 293T-puro; 1 ug/ml antibody, Alexa 488 anti-human IgG secondary
Description: as §1

[8] = target: T3, mouse IL1RAP (Met1-Val570 plus Myc-DDK) …; test: flow cytometry on 293 cells expressing mouse IL1RAP (293-puro-mouseIL1RAP) vs 293T-puro
Description: as §1

[9] = target: T4, rat IL1RAP (Met1-Val570 plus Myc-DDK) …; test: flow cytometry on 293 cells expressing rat IL1RAP (293-puro-ratIL1RAP) vs 293T-puro
Description: as §1

[10] = target: T2, human IL1RAP on IL1RAP positive human …; test: cell-based or functional assay; remark: listed apart in the source

T3 sequence (Q61730 21-570): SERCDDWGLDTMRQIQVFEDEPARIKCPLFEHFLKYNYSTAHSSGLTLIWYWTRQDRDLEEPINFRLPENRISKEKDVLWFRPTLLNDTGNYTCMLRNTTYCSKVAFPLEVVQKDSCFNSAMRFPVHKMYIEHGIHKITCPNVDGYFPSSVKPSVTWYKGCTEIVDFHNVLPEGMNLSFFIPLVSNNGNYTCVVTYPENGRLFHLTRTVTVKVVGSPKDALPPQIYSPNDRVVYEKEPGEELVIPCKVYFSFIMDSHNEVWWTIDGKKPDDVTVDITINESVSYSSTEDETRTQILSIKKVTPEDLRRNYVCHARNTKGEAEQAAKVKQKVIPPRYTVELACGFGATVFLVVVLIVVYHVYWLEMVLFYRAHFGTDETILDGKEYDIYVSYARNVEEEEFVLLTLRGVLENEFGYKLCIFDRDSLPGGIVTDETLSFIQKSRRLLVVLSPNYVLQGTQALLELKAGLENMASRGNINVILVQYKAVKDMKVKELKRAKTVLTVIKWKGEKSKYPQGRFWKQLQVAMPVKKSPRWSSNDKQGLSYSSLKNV
T4 sequence (Q63621 21-570): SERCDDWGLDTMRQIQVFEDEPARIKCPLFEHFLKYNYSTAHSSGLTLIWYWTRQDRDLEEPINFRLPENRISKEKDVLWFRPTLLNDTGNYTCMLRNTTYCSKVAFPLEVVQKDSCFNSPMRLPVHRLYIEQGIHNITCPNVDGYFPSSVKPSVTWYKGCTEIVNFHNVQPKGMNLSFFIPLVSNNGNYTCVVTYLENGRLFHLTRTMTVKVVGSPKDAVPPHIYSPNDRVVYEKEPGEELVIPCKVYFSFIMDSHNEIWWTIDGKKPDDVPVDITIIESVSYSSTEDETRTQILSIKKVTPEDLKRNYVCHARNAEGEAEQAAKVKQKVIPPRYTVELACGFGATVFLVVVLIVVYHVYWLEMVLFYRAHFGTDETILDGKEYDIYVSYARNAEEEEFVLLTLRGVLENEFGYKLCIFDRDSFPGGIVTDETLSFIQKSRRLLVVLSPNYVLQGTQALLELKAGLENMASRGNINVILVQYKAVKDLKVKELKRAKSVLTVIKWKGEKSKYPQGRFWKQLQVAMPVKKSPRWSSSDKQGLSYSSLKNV

Binder | Kd [1] | binding result [3] | binding result [6] | EC50, inhibition of signalling by 0.5 ng/ml IL-1beta in HEK-Blue IL-1beta reporter cells (Abs. 620 nM) [4] | EC50, inhibition of signalling by 0.5 ng/ml IL-1a (IL-1alpha) in the HEK-Blue IL-1 reporter assay (Abs. 620 nM) [5] | also measured
36A10_21B6 (antibody, V domains shown) VH: QGQVVESGGGVVQPGRSLRLSCAASGFTFSSYTLHWVRQAPGKGLEWVAVIWYDGSNKYYVDSVKGRFTISRDNSKNTLYLQMNSLRAEDTAVYYCAREYGSGSYYNVYYGMDVWGQGTTVTLSS VL: DIVMTQSPLSLPVTPGEPASISCRSSQSLLHSNGYNYLDWYLQKPGQSPHLLIYLASNRASGVPDRFSGSGSGTDFTLKISRVEAEDVGFYYCMQTLQIPLTFGGGTKVEIK | 400 pM | no binding (tested: 1 ug/ml) | no binding (tested: 1 ug/ml) |  |  | EC50, inhibition of signalling by 0.5 ng/ml IL-33 in HEK-Blue IL-33 reporter cells (Abs. 620 nM) [2]: 1760 pM; EC50, inhibition of signalling by 0.5 ng/ml IL-1beta in HEK-Blue IL-1beta reporter cells (Abs. 620 nm); row printed as 36A10_21C2 [4]: 290 pM; EC50, inhibition of signalling by 0.5 ng/ml IL-1a (IL-1alpha) in the HEK-Blue IL-1 reporter assay (Abs. 620 nm); row printed as 36A10_21C2 [5]: 660 pM
5D12_18A4 (antibody, V domains shown, Recombinant human antibody) VH: QVQLQESGPGLVKPLGTLSLTCAVSGGSISNSNWWSWVRQPPGKGLEWIGEIYHSGSTNYNPSLKSRVTIALDWSKNQFSLQLRSVTAADTAVYYCARYGSGPFGGDCWGQGTLVTVSS VL: DIQLTQSPSFLSASVGDRVTISCRASQGISSYLAWYQQKPGKAPKLLIYAASTLQGGVPSRFSGSGSGTTFTLTISSLQPEDFATYYCQQLNTYPFTFGPGTKLEIK | 19000 pM |  | no binding (tested: 1 ug/ml) |  |  | 
37D11_21C2 (antibody, V domains shown) VH: QVQIKESGPGLVKPSETLSLTCAVSGFSFSSGYYWGWIRQPPGKGLEWLGSFFHNGNTYYNPSLRSRVTISVDTSKNHFSLKLTSVTAADTAVYYCAGFGDLPHYHYYVMDVWGQGTTVTVSS VL: EIVLTQSPATLSLSPGERATLSCRASQSVSSYLAWYQQKPGQAPRLLIYDASNRAIGIPARFSGSGSGTDFTLTISSLEPEDFAVYYCQQRSNWPPYTFGQGTKLEIK | 13000 pM | no binding (tested: 1 ug/ml) | no binding (tested: 1 ug/ml) |  |  | 
24G3_17C5 (antibody, V domains shown, Recombinant human antibody) VH: EVQLLESGGGLVQRGGSLRLSCAASGFTFSSYAMSWVRQAPGKGLEWVSSISGSGDSTNYADSVKGRFTISRDNSKNTLHLQMNSLRAEDTAVYYCVRDYYYGMDVWGHGTTVTVSS VL: EIVLTQSPATLSLSPGERATLSCRASQSVNSYLAWYQQKPGQAPRLLIYDASNRATGIPARFSGSGSGTDFTLTISSLEPEDFAVYYCQQRSYWPITFGQGTRLEIK | 37000 pM |  |  |  |  | binding result [7]: binds
38E10_21C3 (antibody, V domains shown, Recombinant human antibody) VH: EVQLLESGGGLVQPGGSLRLSCAASGFTFSNYAMTWVRQAPGKGLEWVSSISISRAGTYYADSVKGRFTISRDNSKNTLNLQMNSLRAEDTAEYYCAREYYYGMDVWGQGTTVTVSS VL: EIVLTQSPATLSLSPGERATLSCRASQSVSSYLAWYQQKPGQTPRLLIYDASNRATGIPARFSGSGSGTDFTLTISSLETEDFAVYYCQQLINWPLTFGGGTKLEIK | 2000 pM |  |  |  |  | binding result [8]: no binding (tested: 1 ug/ml); binding result [9]: no binding (tested: 1 ug/ml)
39G1_21C4 (antibody, V domains shown) VH: QVQLQESGPGLVKPSETLSLTCAVSGYSASGVYYWGWIRQPPGKGLEWIGNIYHSGSTYYNPSLERRVSISLDTSKNHFSLRLNFVTAADTAVYYCARDRFDAFDIWGQGTMVTVSS VL: EIVMTQSPATLSVSPGERATLSCRASQSINNILAWYQQKPGQAPRLLIYGASTRATGIPARFSGSGSGTEFTLTISSLQSEDFAVYYCQQYNNWPLTFGGGTKVEIK | 1600 pM |  | no binding (tested: 1 ug/ml) |  |  | 
34H8_21B4 (antibody, V domains shown, Recombinant human antibody) VH: QVQLQESGPGLVKPSETLSLTCAVSGYSASGLYYWAWIRQPPGKGLEWIGNIYHSGRTYYNPSLESRVSISLDTSKHQVSLKLKSVTYADTAVYFCARDRFDGFDIWGQGTMVTVSS VL: EIVMTQSPATLSVSPGERATLSCRASQTINNILAWYQQKPGQAPRLLIYGASTRATGIPARFSGSGSGTEFTLTISSLQSEDFAVYYCQQYNNWPLTFGGGTKLEIK | 5000 pM |  |  |  |  | 
5G8_18A1 (antibody, V domains shown) VH: QVELQESGPGLVKPSDTLSLTCTVTGGSISTYYWSWIRQPPGKGLEWIGYIFYTGTTNYNPSLKSRVTISVDASKNQFSLKLNSVTAADTAVYYCARDGSLDYWGQGALVTVSS VL: DIQMTQSPSSLSASVGDRVTITCRASQSISNYLNWYQQKPGKAPKLLIFVASLLQSGVPSRFSGSGSGTDFTLTISSLQPEDFATYYCQQSYSTPFTFGPGTKLEIK | 400 pM | no binding (tested: 1 ug/ml) | no binding (tested: 1 ug/ml) | 580 pM | 830 pM | 
16H2_17D2 (antibody, V domains shown) VH: QVQLVESGGGVVQPGGSLRLSCAASGFTFSSHGMHWVRQAPGKGLEWVAVIWYDGSNKFYTDSVQGRFTISRDNSKNTLNLQMNSLRAEDTAVYYCAREGLRAGYYFDFWGQGTLVTVSS VL: DIQMTQSPSSLSASVGDRVTITCRASQRISFYSNWYQQKPGKAPKLLIYAASSLQSGVPSRFSGSGSGTDFTLTISSLQPEDFATYFCQQSHSTPLTFGGGTKLEIK | 200 pM |  |  | 100 pM | 90 pM | binding result [8]: no binding (tested: 1 ug/ml); binding result [9]: no binding (tested: 1 ug/ml)
37E10_15B5 (antibody, V domains shown, also called BFB759) VH: QVQLVESGGGVVQPGRSLRLSCAASGFTFRSHGMHWVRQAPGKGLEWVAVIWYDGSSEYYADSVKGRFTISRDNSKNTLYLQMNSLRAEDTAVYYCARENVYGSGWFFDYWGQGTLVTVSS VL: EIVMTQSPATLSVSPGERASLSCRASQSVGSNLAWYQQRPGQAPRLLIFGASTRATGIPARFSGSRSGTEFTLTISSLQSEDFALYYCQQYNNWPPWTFGQGTKLEIK | 300 pM | no binding (tested: 1 ug/ml) | no binding (tested: 1 ug/ml) | 150 pM | 190 pM | EC50 against IL-1alpha signaling, IL-1 reporter assay [10]: < 1000 pM; EC50 against IL-1beta signaling, IL-1 reporter assay [10]: < 1000 pM; EC50, inhibition of signalling by 0.5 ng/ml IL-33 in HEK-Blue IL-33 reporter cells (Abs. 620 nm); the curve levels off at about 0.4, not at 0 [2]: 320 pM
44E5_15C5 (antibody, V domains shown) VH: QVQLVESGGGVVQPGRSLRLSCAASGFTFRSHGMHWVRQAPGKGLEWVAVIWYDGSSDYYADSVKGRFTISRDNSKNTLFLQMNSLSAEDTAVYYCARENVYGSGWFFDYWGQGTLVTVSS VL: EIVMTQSPATLSVSPGERASLSCRASQSVGSNLAWYQQKPGQAPRLLIFGASTRATGIPARFSGSRSGTEFTLTISSLQSEDFALYYCQQYNNWPPWTFGQGTKLEIK | 400 pM | no binding (tested: 1 ug/ml) | no binding (tested: 1 ug/ml) | 170 pM | 180 pM | EC50 against IL-1alpha signaling, IL-1 reporter assay [10]: < 1000 pM; EC50 against IL-1beta signaling, IL-1 reporter assay [10]: < 1000 pM; EC50, inhibition of signalling by 0.5 ng/ml IL-33 in HEK-Blue IL-33 reporter cells (Abs. 620 nm); the curve levels off at about 0.4, not at 0 [2]: 440 pM
10C8_15A1 (antibody, V domains shown) VH: QVQLVESGGGVVQPGRSLRISCAASGFTFRSYGMHWVRQAPGKGLEWVAIIWHDESYKYYVDSVKGRFTISRDNSKNTLYLQMNSLRAEDTAVYYCARGDYYGSGSYYDAFDIWGQGTMVTVSS VL: DIQMTQSPSSLSASVGDRVIITCRASQGISNYLAWFQQKPGKCPNLLIYAASTLRSGVPSRFSGSGSGTDFTLTISSLQPEDVATYYCQKYNSAPYTFGQGTKVEIK | 30000 pM | no binding (tested: 1 ug/ml) | no binding (tested: 1 ug/ml) |  |  | 
